Side chains are listed from the residue outwards. Ends that are not written are not given here. amino‑PEG‑coated CdSeTe/ZnS quantum dot = amino-PEG-coated CdSeTe/ZnS quantum dot; sulfo‑SMCC = sulfosuccinimidyl-4-(N-maleimidomethyl)cyclohexane-1-carboxylate
Target: T1, recombinant human VCAM-1 (human, UniProt P19320 25-698)
T1 construct: vascular cell adhesion molecule 1 (VCAM-1), human, recombinant; A bought recombinant VCAM-1 is likely the soluble extracellular part, perhaps with a tag or Fc; also called recombinant VCAM-1; vascular cell adhesion molecule 1; source: bought: R&D Systems
T1 sequence (looked up): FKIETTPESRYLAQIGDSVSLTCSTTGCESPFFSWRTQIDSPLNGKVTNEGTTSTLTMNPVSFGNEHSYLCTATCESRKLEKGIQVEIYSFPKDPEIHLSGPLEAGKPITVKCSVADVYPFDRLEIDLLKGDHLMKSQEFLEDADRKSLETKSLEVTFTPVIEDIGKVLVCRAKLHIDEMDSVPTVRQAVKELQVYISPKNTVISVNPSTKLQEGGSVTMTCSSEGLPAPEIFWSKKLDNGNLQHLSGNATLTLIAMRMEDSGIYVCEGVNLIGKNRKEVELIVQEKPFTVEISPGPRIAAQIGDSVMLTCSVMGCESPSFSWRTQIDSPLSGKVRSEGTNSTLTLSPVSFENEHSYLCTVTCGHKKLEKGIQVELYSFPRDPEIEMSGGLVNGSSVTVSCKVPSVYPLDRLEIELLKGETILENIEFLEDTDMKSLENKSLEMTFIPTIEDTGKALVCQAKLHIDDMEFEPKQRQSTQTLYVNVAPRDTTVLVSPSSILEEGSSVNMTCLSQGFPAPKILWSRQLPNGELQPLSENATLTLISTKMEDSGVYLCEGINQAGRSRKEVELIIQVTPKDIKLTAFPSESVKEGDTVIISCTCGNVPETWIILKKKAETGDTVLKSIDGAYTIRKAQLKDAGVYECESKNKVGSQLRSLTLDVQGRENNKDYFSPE
Assay: blue-shift of the quantum dot fluorescence peak (spectra by confocal microscope); VQDs mixed with recombinant human VCAM-1 in tube in 10:1 and 1:1 molar ratios, 5 hours at room temperature; a drop dried on a slide; excitation 405 nm; blue-shift seen at 1:1, not at 10:1
Details: both partners purified

binding result: binds
B1: VCAM-1 binding peptide functionalized QDs (VQDs) (peptide)
peptide: VHPKQHRGGSKGC([sulfo‑SMCC-amino‑PEG‑coated CdSeTe/ZnS quantum dot])
notes: source: synthetic peptide (Innovagen, Sweden), conjugated to Qdot 705 ITK Amino (PEG) Quantum Dots (Invitrogen) with sulfo-SMCC
